Legend:
[1] = biological target: recombinant MERS-CoV S1 protein (MERS-CoV); experiment: SPR
[2] = biological target: recombinant MERS-CoV S1 protein (MERS-CoV); experiment: SPR; remark: listed apart in the source

| Binder | koff [1] | Kd [2] |
| --- | --- | --- |
| IgG1 m336-gL (all light-chain somatic mutations reverted to germline) (antibody, V domains shown) VH: QVQLVQSGAEVKKPGSSVKVSCKASGGTFSSYAISWVRQAPGQGLEWMGGIIPIFGTASYAQKFQGRVTITADKSTSTAYMELSSLRSEDTAVYYCARVGYCSSTSCNRGAFDIWGQGTMVTVSS VL: DIQMTQSPSSLSASVGDRVTITCRASQGIRNDLGWYQQKPGKAPKRLIYAASSLQSGVPSRFSGSGSGTEFTLTISSLQPEDFATYYCLQHNSYPLTFGGGTKVEIK | 0.000545 s⁻¹ | 25.2 nM |
| IgG1 m336-gL-FR (light-chain framework somatic mutations reverted to germline) (antibody, V domains shown) VH: QVQLVQSGAEVKKPGSSVKVSCKASGGTFSSYAISWVRQAPGQGLEWMGGIIPIFGTASYAQKFQGRVTITADKSTSTAYMELSSLRSEDTAVYYCARVGYCSSTSCNRGAFDIWGQGTMVTVSS VL: DIQMTQSPSSLSASVGDRVTITCRASQGIRNDLGWYQQKPGKAPKRLIYAASSLQSGVPSRFSGSGSGTEFTLTISSLQPEDFATYYCQQLNSYPLTFGGGTKVEIK | 0.000769 s⁻¹ | 15.7 nM |
| IgG1 m336-gH (heavy-chain somatic mutation reverted to germline) (antibody, V domains shown) VH: QVQLVQSGAEVKKPGSSVKVSCKASGGTFSSYAISWVRQAPGQGLEWMGGIIPIFGTANYAQKFQGRVTITADKSTSTAYMELSSLRSEDTAVYYCARVGYCSSTSCNRGAFDIWGQGTMVTVSS VL: DIQLTQSPSSLSASVGDRVTITCRASQGIRNDLGWYQQKPGKAPKLLIYAASSLQSGVPSRFSGSGSGTDFTLTISSLQPEDFATYYCQQLNSYPLTFGGGTKVEIK | 0.000329 s⁻¹ | 0.239 nM |
| IgG1 m336 (antibody, V domains shown) VH: QVQLVQSGAEVKKPGSSVKVSCKASGGTFSSYAISWVRQAPGQGLEWMGGIIPIFGTASYAQKFQGRVTITADKSTSTAYMELSSLRSEDTAVYYCARVGYCSSTSCNRGAFDIWGQGTMVTVSS VL: DIQLTQSPSSLSASVGDRVTITCRASQGIRNDLGWYQQKPGKAPKLLIYAASSLQSGVPSRFSGSGSGTDFTLTISSLQPEDFATYYCQQLNSYPLTFGGGTKVEIK | 0.000955 s⁻¹ | 1.49 nM |
